Usually Kd stands for the constant that tells how readily two partners part at equilibrium. A higher Kd goes with lower affinity. A word on the stoichiometry N: it is the number of molecules, sites or subunits per partner or assembly.

The target in assay [1] is His6-MKK7 Kinase Domain (MKK7_KD, residues 101–405, Ser271Asp and Thr275Asp) (UniProt O14733). Nature of the assay: other fluorescence titration; tryptophan fluorescence quenching; 1.25 μM MKK7_KD in 10 mM phosphate buffer pH 7.5, peptide added stepwise, 25.0 °C, excitation 295 nm, emission read at 333 nm.
Assay [2] deals with T1, Recombinant His6-GADD45β, O75293.
T1 chain: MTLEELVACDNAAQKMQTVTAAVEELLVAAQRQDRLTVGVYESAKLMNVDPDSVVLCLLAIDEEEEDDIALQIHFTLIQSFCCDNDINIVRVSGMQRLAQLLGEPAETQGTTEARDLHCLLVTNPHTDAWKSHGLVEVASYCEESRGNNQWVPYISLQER
The assay can be described thus: cross-linking; SDA reacted first with GADD45β (preliminary reaction order), then photo-cross-linking. The conditions noted are these: remark: other sources report otherwise.

Assay [3] has as its target T2, His6-MKK7 Kinase Domain (MKK7_KD, residues 101–405, Ser271Asp and Thr275Asp) (UniProt O14733 101-405, Ser271Asp | Thr275Asp).
T2 construct: Theoretical mass with tag is printed as 36194.8 Da; In the GADD45β cross-linking experiment this protein was first labelled on amines with SDA (NHS-diazirine); also called MKK7_KD 101–405; MKK7_KD (101–405); source: E. coli BL21(DE3), pETDuet-1, purified (His-Trap, Superdex 75 gel filtration)
T2 sequence (looked up): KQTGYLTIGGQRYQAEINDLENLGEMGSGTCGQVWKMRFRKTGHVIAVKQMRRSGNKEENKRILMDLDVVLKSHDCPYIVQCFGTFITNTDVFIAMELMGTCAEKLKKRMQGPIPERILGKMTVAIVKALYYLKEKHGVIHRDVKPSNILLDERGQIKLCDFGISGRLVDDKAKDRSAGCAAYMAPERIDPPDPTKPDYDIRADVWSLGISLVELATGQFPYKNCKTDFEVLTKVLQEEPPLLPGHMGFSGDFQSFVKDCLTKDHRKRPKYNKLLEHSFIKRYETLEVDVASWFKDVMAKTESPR
Nature of the assay: SPR; Biacore3000; GADD45β covalently immobilised on a CM5 chip (EDC/NHS, pH 3.5), soluble MKK7_KD injected; KD averaged over the values at the various concentrations. The settings on record: both partners purified. Background: Surface plasmon resonance follows binding to a sensor surface in real time, without labels.

Assay [4] addresses T2, His6-MKK7 Kinase Domain (MKK7_KD, …). Nature of the assay: ELISA; MKK7_KD coated on polystyrene wells at 100 nM; biotinylated GADD45β at 10–160 nM; detection with Streptavidin-HRP; 1:1 curve fit. The settings on record: both partners purified. On the technique in general: ELISA stands for enzyme-linked immunosorbent assay.

For “DTP3 (Ac-D-Tyr-D-Arg-D-Phe-NH2) (peptide)”, in assay [1], the Kd turned out to be 100 nM.

B1: Recombinant His6-GADD45β, O75293 1-160 (natural protein)
chain: T1 chain
Consider B1, for which the stoichiometry N in assay [2] is 2.

B2: Recombinant His6-GADD45β (natural protein, UniProt O75293 1-160, looked up)
chain: T1 chain
notes: GADD45β, UniProt O75293, 160 amino acids; The theoretical mass of the tagged protein is printed as 19196.6 Da, against 17,818 Da for the 160-residue protein; also called Growth arrest and DNA-damage-inducible GADD45-family member GADD45β; source: E. coli BL21(DE3), pET28a, purified (His-Trap, Superdex 75 gel filtration)
Consider B2, for which, in assay [3], the Kd is about 6 nM.

B3: biotinylated GADD45β (natural protein, UniProt O75293 1-160, looked up)
chain: T1 chain
modifications: biotin (site not stated)
notes: GADD45β, UniProt O75293, 160 amino acids; as m1, biotinylated; also called biotin-GADD45β; biotinylated variant of GADD45β; source: E. coli BL21(DE3), pET28a, purified (His-Trap, gel filtration), biotinylated
On to B3, for which, in assay [4], the Kd was about 30 nM.
